# Laboratory results taken from patent US20260035447A1 (SCHOLAR ROCK, published 2026).
# B1: anti-pro/latent GDF8 antibody, Ab10 (antibody, V domains shown)
# VH: EVQLVQSGGGVVQSGRSLRLSCVASGFSFSNYGMHWVRQAPGKGLEWLAFIWYDGSNKWYADSVKGRFTISRDNSKNALYLQMNSLRAEDTAVYYCARDRYSSSWGGGFDYWGQGTVLTVSS
# VL: NFMLTQPHSVSESPGRTVTIPCSGRGGSIASDSVQWYQQRPGSAPTTIIYEDNQRPSGVPDRFSGSVDSSSNSASLTISGLRTEDEADYYCQSYDASSLWVFGGKTKLTVLG
# notes: The VL as printed runs into the start of the lambda constant region
# Target: T1, proGDF11 (Mus musculus, UniProt Q9Z1W4)
# T1 construct: The text calls it recombinant mouse GDF11 / rGDF11, and the sheet labels it '10x proGDF11'; also called recombinant mouse GDF11; rGDF11 (murine)
# T1 sequence (proprotein, looked up): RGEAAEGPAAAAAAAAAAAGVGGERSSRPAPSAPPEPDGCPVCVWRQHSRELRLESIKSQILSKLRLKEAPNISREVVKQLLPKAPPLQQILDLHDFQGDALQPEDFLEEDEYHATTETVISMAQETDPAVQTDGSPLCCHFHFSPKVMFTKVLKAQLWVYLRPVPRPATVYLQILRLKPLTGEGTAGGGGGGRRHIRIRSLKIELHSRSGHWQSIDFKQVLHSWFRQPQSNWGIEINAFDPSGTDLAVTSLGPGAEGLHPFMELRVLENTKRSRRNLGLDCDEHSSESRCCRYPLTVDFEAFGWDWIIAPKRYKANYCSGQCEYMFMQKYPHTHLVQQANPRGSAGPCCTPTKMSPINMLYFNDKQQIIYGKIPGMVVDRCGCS
# Assay: recombinant protein absorption: Ab10 at 50 µg/mL pre-incubated overnight with 10-fold molar excess of recombinant mouse GDF11, then used as primary antibody for immunofluorescence on mouse tibialis anterior sections; read-out is retained tissue pro/latent GDF8 staining
# Description: Tibialis anterior (TA) muscles were fixed in ice cold 4% paraformaldehyde (EMS), PBS for 30 min, incubated overnight in 10% sucrose, PBS at 4° C., then incubated overnight in 20% sucrose, PBS. Muscles were then mounted on cork with tragacanth (Sigma) and frozen in liquid nitrogen cooled isopentane (Sigma) for cryosectioning. 10 μm sections of TA muscle were permeabilized with 0.1% Triton-X 100 (Sigma), PBS for 20 minutes, washed once with 0.05% Triton-X 100, PBS (PBS/T), and then incubated in Mouse IgG blocking reagent (Vector Lab) diluted at 1 drop per 1.5 mL PBS/T for 1 h. Sections were washed once with PBS/T and then incubated in 10% Normal Goat Serum (Sigma), 1% Blocking powder (Perkin Elmer), PBS/T (NGB) for 30 minutes at room temperature. Primary antibodies (Rabbit anti-laminin, 1:5000, Abcam; Ab10, […]; HuNeg, 50 μg/mL,) were diluted in NGB and applied to sections overnight at 4° C. Sections were washed 3 times with PBS/T, and then incubated in secondary antibodies (Alexa Fluor 488 conjugated Goat anti-Rabbit, 1:1000, Invitrogen; Alexa Fluor 594 conjugated Goat anti-Human IgG FCY, 1:500, Jackson ImmunoResearch) diluted in NGB for 1 h. Sections were then incubated in 350 nM DAPI (Thermo), PBS/T for 5 minutes, washed twice with PBS/T, and then mounted with Vectashield (Vector Laboratories). […]
binder,measurement,value
B1,binding result,no binding
